Our source for the abundance fitness values is the Human Domainome abundance scans (Beltran et al. 2025).

± gives the uncertainty stated by the source.

B1: Intersectin-2, residues 1129 to 1183; numbered along this chain, Q9NZM3 (parent)
chain: VCQVIAMYDYAANNEDELSFSKGQLINVMNKDDPDWWQGEINGVTGLFPSNYVKM

The series covers variants of B1. The experiment in a line: abundance fitness (aPCA) (normalised: wild type 0, dead -1); higher = more abundant; growth selection in yeast, the domain comes from the species named. The following applies: Homo sapiens.
Turning to VCVVIAMYDYAANNEDELSFSKGQLINVMNKDDPDWWQGEINGVTGLFPSNYVKM, the abundance fitness is -0.042 ± 0.052.

Turning to VCRVIAMYDYAANNEDELSFSKGQLINVMNKDDPDWWQGEINGVTGLFPSNYVKM, the abundance fitness was -0.13 ± 0.042.

With VCTVIAMYDYAANNEDELSFSKGQLINVMNKDDPDWWQGEINGVTGLFPSNYVKM, the abundance fitness was -0.047 ± 0.054.

With VCYVIAMYDYAANNEDELSFSKGQLINVMNKDDPDWWQGEINGVTGLFPSNYVKM, the abundance fitness was -0.029 ± 0.064.

In the case of VCSVIAMYDYAANNEDELSFSKGQLINVMNKDDPDWWQGEINGVTGLFPSNYVKM, the abundance fitness worked out at 0.012 ± 0.047.

VCPVIAMYDYAANNEDELSFSKGQLINVMNKDDPDWWQGEINGVTGLFPSNYVKM: the abundance fitness is -0.116 ± 0.032.

Regarding VCMVIAMYDYAANNEDELSFSKGQLINVMNKDDPDWWQGEINGVTGLFPSNYVKM, the abundance fitness was -0.053 ± 0.044.

For VCNVIAMYDYAANNEDELSFSKGQLINVMNKDDPDWWQGEINGVTGLFPSNYVKM, the abundance fitness was -0.169 ± 0.064.

Consider VCWVIAMYDYAANNEDELSFSKGQLINVMNKDDPDWWQGEINGVTGLFPSNYVKM, for which the abundance fitness is -0.076 ± 0.046.

As for VCQVICMYDYAANNEDELSFSKGQLINVMNKDDPDWWQGEINGVTGLFPSNYVKM, the abundance fitness is -0.154 ± 0.036.

As for VCQVIDMYDYAANNEDELSFSKGQLINVMNKDDPDWWQGEINGVTGLFPSNYVKM, the abundance fitness is -0.93 ± 0.13.

As to VCQVIFMYDYAANNEDELSFSKGQLINVMNKDDPDWWQGEINGVTGLFPSNYVKM, the abundance fitness is -1.03 ± 0.099.

In the case of VCQVIGMYDYAANNEDELSFSKGQLINVMNKDDPDWWQGEINGVTGLFPSNYVKM, the abundance fitness was -0.163 ± 0.038.

For the variant VCQSIAMYDYAANNEDELSFSKGQLINVMNKDDPDWWQGEINGVTGLFPSNYVKM, the abundance fitness is -0.064 ± 0.029.

For VCQWIAMYDYAANNEDELSFSKGQLINVMNKDDPDWWQGEINGVTGLFPSNYVKM, the abundance fitness is -0.079 ± 0.029.

As to VCQDIAMYDYAANNEDELSFSKGQLINVMNKDDPDWWQGEINGVTGLFPSNYVKM, the abundance fitness was -0.511 ± 0.084.

With VCQTIAMYDYAANNEDELSFSKGQLINVMNKDDPDWWQGEINGVTGLFPSNYVKM, the abundance fitness is -0.079 ± 0.044.

VCQKIAMYDYAANNEDELSFSKGQLINVMNKDDPDWWQGEINGVTGLFPSNYVKM: the abundance fitness is -0.62 ± 0.041.

For the variant VCQLIAMYDYAANNEDELSFSKGQLINVMNKDDPDWWQGEINGVTGLFPSNYVKM, the abundance fitness is -0.297 ± 0.033.

In the case of VCQQIAMYDYAANNEDELSFSKGQLINVMNKDDPDWWQGEINGVTGLFPSNYVKM, the abundance fitness is -0.349 ± 0.055.

On to VCQAIAMYDYAANNEDELSFSKGQLINVMNKDDPDWWQGEINGVTGLFPSNYVKM, for which the abundance fitness is -0.027 ± 0.038.

On to VCQRIAMYDYAANNEDELSFSKGQLINVMNKDDPDWWQGEINGVTGLFPSNYVKM, for which the abundance fitness is -0.458 ± 0.036.

Regarding VCQNIAMYDYAANNEDELSFSKGQLINVMNKDDPDWWQGEINGVTGLFPSNYVKM, the abundance fitness was -0.688 ± 0.12.

As to VCQHIAMYDYAANNEDELSFSKGQLINVMNKDDPDWWQGEINGVTGLFPSNYVKM, the abundance fitness was -0.205 ± 0.067.

Regarding VCQIIAMYDYAANNEDELSFSKGQLINVMNKDDPDWWQGEINGVTGLFPSNYVKM, the abundance fitness was -0.478 ± 0.042.

Turning to VCQFIAMYDYAANNEDELSFSKGQLINVMNKDDPDWWQGEINGVTGLFPSNYVKM, the abundance fitness was -0.004 ± 0.032.

Turning to VCQEIAMYDYAANNEDELSFSKGQLINVMNKDDPDWWQGEINGVTGLFPSNYVKM, the abundance fitness was -0.405 ± 0.066.

Consider VCQYIAMYDYAANNEDELSFSKGQLINVMNKDDPDWWQGEINGVTGLFPSNYVKM, for which the abundance fitness was 0.032 ± 0.038.

As to VCQGIAMYDYAANNEDELSFSKGQLINVMNKDDPDWWQGEINGVTGLFPSNYVKM, the abundance fitness is -0.041 ± 0.034.

In the case of VCQVNAMYDYAANNEDELSFSKGQLINVMNKDDPDWWQGEINGVTGLFPSNYVKM, the abundance fitness is -0.186 ± 0.049.

Consider VCQVQAMYDYAANNEDELSFSKGQLINVMNKDDPDWWQGEINGVTGLFPSNYVKM, for which the abundance fitness was -0.085 ± 0.043.

Take VCQVWAMYDYAANNEDELSFSKGQLINVMNKDDPDWWQGEINGVTGLFPSNYVKM: the abundance fitness was -0.056 ± 0.037.

Turning to VCQVFAMYDYAANNEDELSFSKGQLINVMNKDDPDWWQGEINGVTGLFPSNYVKM, the abundance fitness was -0.022 ± 0.038.

In the case of VCQVVAMYDYAANNEDELSFSKGQLINVMNKDDPDWWQGEINGVTGLFPSNYVKM, the abundance fitness is -0.015 ± 0.037.

Take VCQVLAMYDYAANNEDELSFSKGQLINVMNKDDPDWWQGEINGVTGLFPSNYVKM: the abundance fitness was -0.132 ± 0.041.

Turning to VCQVKAMYDYAANNEDELSFSKGQLINVMNKDDPDWWQGEINGVTGLFPSNYVKM, the abundance fitness is -0.173 ± 0.049.

With VCQVYAMYDYAANNEDELSFSKGQLINVMNKDDPDWWQGEINGVTGLFPSNYVKM, the abundance fitness is -0.062 ± 0.058.

In the case of VCQVEAMYDYAANNEDELSFSKGQLINVMNKDDPDWWQGEINGVTGLFPSNYVKM, the abundance fitness is -0.062 ± 0.052.

For the variant VCQVAAMYDYAANNEDELSFSKGQLINVMNKDDPDWWQGEINGVTGLFPSNYVKM, the abundance fitness is -0.121 ± 0.035.

With VCQVGAMYDYAANNEDELSFSKGQLINVMNKDDPDWWQGEINGVTGLFPSNYVKM, the abundance fitness is -0.457 ± 0.033.

On to VCQVCAMYDYAANNEDELSFSKGQLINVMNKDDPDWWQGEINGVTGLFPSNYVKM, for which the abundance fitness was -0.077 ± 0.049.

With VCQVHAMYDYAANNEDELSFSKGQLINVMNKDDPDWWQGEINGVTGLFPSNYVKM, the abundance fitness is -0.188 ± 0.063.

With VCQVPAMYDYAANNEDELSFSKGQLINVMNKDDPDWWQGEINGVTGLFPSNYVKM, the abundance fitness is -0.531 ± 0.053.

Take VCQVSAMYDYAANNEDELSFSKGQLINVMNKDDPDWWQGEINGVTGLFPSNYVKM: the abundance fitness is -0.134 ± 0.036.

For the variant VCQVDAMYDYAANNEDELSFSKGQLINVMNKDDPDWWQGEINGVTGLFPSNYVKM, the abundance fitness is -0.164 ± 0.037.

For VCQVTAMYDYAANNEDELSFSKGQLINVMNKDDPDWWQGEINGVTGLFPSNYVKM, the abundance fitness worked out at 0.023 ± 0.03.

Turning to VCQVRAMYDYAANNEDELSFSKGQLINVMNKDDPDWWQGEINGVTGLFPSNYVKM, the abundance fitness was -0.147 ± 0.04.

As for VCQVMAMYDYAANNEDELSFSKGQLINVMNKDDPDWWQGEINGVTGLFPSNYVKM, the abundance fitness was -0.144 ± 0.038.
